Measurements: publication PMC3656001

Legend:
[1] = biological target: bovine lactoferrin (bovine); experiment: AUC; multi-signal sedimentation velocity (MSSV) with mass conservation and low-s constraints; mixture of 6.9 µM Tp34 and 2.3 µM bLF in solution, diluted from Buffer A into 20 mM Tris pH 7.5, 20 mM NaCl; 20°C, 50,000 rpm; interference + absorbance at 280 nm; Kd estimated from the reaction boundary molar ratio by effective particle theory, assuming sAB = 6.2 S
[2] = biological target: bovine lactoferrin (bovine); experiment: AUC; follow-up multi-signal sedimentation velocity (MSSV) without constraints, conducted almost identically to a1 but with absorbance at 280 nm and 250 nm and no interference signal; Tp34/bLF mixture in solution

B1: Tp34 from Treponema pallidum (natural protein)
chain: CGGGGEHQHGEEMMAAVPAPDAEGAAGFDEFPIGEDRDVGPLHVGGVYFQPVEMHPAPGAQPSKEEADCHIEADIHANEAGKDLGYGVGDFVPYLRVVAFLQKHGSEKVQKVMFAPMNAGDGPHYGANVKFEEGLGTYKVRFEIAAPSHDEYSLHIDEQTGVSGRFWSEPLVAEWDDFEWKGPQW
Kd [1]: 3.1 µM | stoichiometry N (mol Tp34 per mol bLF) [1]: 0.7 | stoichiometry N (mol Tp34 per mol bLF) [2]: 0.7
